Reference: article PMC6555819, “Comprehensive study of nuclear receptor DNA binding provides a revised framework for understanding receptor specificity”

B1: NRC3_wobSeed123_DR5_C4G_o1 (dsDNA)
DNA 1: GCCGTCGGAGGACAACAGGAGGTCAGAGCTGCCAGAGCGATTGACAGCGTAGAATGAAGG
DNA 2: CCTTCATTCTACGCTGTCAATCGCTCTGGCAGCTCTGACCTCCTGTTGTCCTCCGACGGC
B2: NRC3_wobSeed123_DR5_A15C_o1 (dsDNA)
DNA 1: GCCCTCGGAGGACACCAGGAGGTCAGAGCTGCCAGAGCGATTGACAGCGTAGAATGAAGG
DNA 2: CCTTCATTCTACGCTGTCAATCGCTCTGGCAGCTCTGACCTCCTGGTGTCCTCCGAGGGC
B3: NRC3_wobSeed115_DR4_A23C_o1 (dsDNA)
DNA 1: GCACAGACAGGTGAGTGAAGGTCACTCAGCTGGACGGCGATTGACAGCGTAGAATGAAGG
DNA 2: CCTTCATTCTACGCTGTCAATCGCCGTCCAGCTGAGTGACCTTCACTCACCTGTCTGTGC
B4: NRC3_wobSeed62_DR2_T20G_o1 (dsDNA)
DNA 1: GCTCTGCTAGGTCAGTTGGGCAGCTAACGAGCTGCCGCGATTGACAGCGTAGAATGAAGG
DNA 2: CCTTCATTCTACGCTGTCAATCGCGGCAGCTCGTTAGCTGCCCAACTGACCTAGCAGAGC
B5: NRC3_wobSeed12_DR0_T8G_o1 (dsDNA)
DNA 1: GCCCGACGGGGGCAAGGTTACCATAACGCACAGCCAGCGATTGACAGCGTAGAATGAAGG
DNA 2: CCTTCATTCTACGCTGTCAATCGCTGGCTGTGCGTTATGGTAACCTTGCCCCCGTCGGGC
B6: NRC3_wobSeed9_DR0_G21T_o1 (dsDNA)
DNA 1: GCATCTCTAGGTAAAGTTCATTGAAAGATCGATAGAGCGATTGACAGCGTAGAATGAAGG
DNA 2: CCTTCATTCTACGCTGTCAATCGCTCTATCGATCTTTCAATGAACTTTACCTAGAGATGC
B7: NRC3_wobSeed9_DR0_T22C_o1 (dsDNA)
DNA 1: GCATCTCTAGGTAAAGTTCAGCGAAAGATCGATAGAGCGATTGACAGCGTAGAATGAAGG
DNA 2: CCTTCATTCTACGCTGTCAATCGCTCTATCGATCTTTCGCTGAACTTTACCTAGAGATGC
B8: NRC3_wobSeed41_DR1_G11C_o1 (dsDNA)
DNA 1: GCATATGTAGCTTAAGGGTCATTCAGGTTGGTTCGCGCGATTGACAGCGTAGAATGAAGG
DNA 2: CCTTCATTCTACGCTGTCAATCGCGCGAACCAACCTGAATGACCCTTAAGCTACATATGC
B9: NRC3_wobSeed61_DR2_T12G_o1 (dsDNA)
DNA 1: GCCGTCCAAGGGCAGCAGGTCAGTGAAAGCGACGTGGCGATTGACAGCGTAGAATGAAGG
DNA 2: CCTTCATTCTACGCTGTCAATCGCCACGTCGCTTTCACTGACCTGCTGCCCTTGGACGGC
B10: NRC3_wobSeed86_DR3_T17A_o1 (dsDNA)
DNA 1: GCGCTGCTAGGTCAGGATGGTCAGCTAACGGGTACGGCGATTGACAGCGTAGAATGAAGG
DNA 2: CCTTCATTCTACGCTGTCAATCGCCGTACCCGTTAGCTGACCATCCTGACCTAGCAGCGC
B11: NRC3_wobSeed86_DR3_G24A_o1 (dsDNA)
DNA 1: GCGCTGCTAGGTCAGGTTGGTCAACTAACGGGTACGGCGATTGACAGCGTAGAATGAAGG
DNA 2: CCTTCATTCTACGCTGTCAATCGCCGTACCCGTTAGTTGACCAACCTGACCTAGCAGCGC
B12: NRC3_wobSeed86_DR3_A23T_o1 (dsDNA)
DNA 1: GCGCTGCTAGGTCAGGTTGGTCTGCTAACGGGTACGGCGATTGACAGCGTAGAATGAAGG
DNA 2: CCTTCATTCTACGCTGTCAATCGCCGTACCCGTTAGCAGACCAACCTGACCTAGCAGCGC
B13: NRC3_wobSeed46_DR1_A5T_o1 (dsDNA)
DNA 1: GCTTTCCAAGGTGAAAGGTCGTTGATGCACGCCTTGGCGATTGACAGCGTAGAATGAAGG
DNA 2: CCTTCATTCTACGCTGTCAATCGCCAAGGCGTGCATCAACGACCTTTCACCTTGGAAAGC
B14: NRC3_wobSeed46_DR1_C7G_o1 (dsDNA)
DNA 1: GCTTACGAAGGTGAAAGGTCGTTGATGCACGCCTTGGCGATTGACAGCGTAGAATGAAGG
DNA 2: CCTTCATTCTACGCTGTCAATCGCCAAGGCGTGCATCAACGACCTTTCACCTTCGTAAGC
B15: NRC3_wobSeed98_DR4_C13A_o1 (dsDNA)
DNA 1: GCACTAGTTGGTAAGCTGAGGTCACACACAATTCGGGCGATTGACAGCGTAGAATGAAGG
DNA 2: CCTTCATTCTACGCTGTCAATCGCCCGAATTGTGTGTGACCTCAGCTTACCAACTAGTGC
B16: NRC3_wobSeed72_DR2_G5A_o1 (dsDNA)
DNA 1: GCTCAAGTAGGTTACGGGGGCATTCAGGGATGAAGAGCGATTGACAGCGTAGAATGAAGG
DNA 2: CCTTCATTCTACGCTGTCAATCGCTCTTCATCCCTGAATGCCCCCGTAACCTACTTGAGC
B17: NRC3_wobSeed111_DR4_G25T_o1 (dsDNA)
DNA 1: GCCGAACTAGGTCAGAACAGGACATTGAAGGATGATGCGATTGACAGCGTAGAATGAAGG
DNA 2: CCTTCATTCTACGCTGTCAATCGCATCATCCTTCAATGTCCTGTTCTGACCTAGTTCGGC
B18: NRC3_wobSeed111_DR4_G27T_o1 (dsDNA)
DNA 1: GCCGAACTAGGTCAGAACAGGACAGTTAAGGATGATGCGATTGACAGCGTAGAATGAAGG
DNA 2: CCTTCATTCTACGCTGTCAATCGCATCATCCTTAACTGTCCTGTTCTGACCTAGTTCGGC
B19: NRC3_wobSeed4_DR0_A24C_o1 (dsDNA)
DNA 1: GCCCTACTGGGCCAAGGTCATTGCTCAGTCAAAGCAGCGATTGACAGCGTAGAATGAAGG
DNA 2: CCTTCATTCTACGCTGTCAATCGCTGCTTTGACTGAGCAATGACCTTGGCCCAGTAGGGC
B20: NRC3_wobSeed4_DR0_C13G_o1 (dsDNA)
DNA 1: GCCCTACTGGGCGAAGGTCATTGATCAGTCAAAGCAGCGATTGACAGCGTAGAATGAAGG
DNA 2: CCTTCATTCTACGCTGTCAATCGCTGCTTTGACTGATCAATGACCTTCGCCCAGTAGGGC
B21: NRC3_wobSeed120_DR4_A17G_o1 (dsDNA)
DNA 1: GCCCGAGTAGGTTACGGGGGGGCATTCAGTGCGAATGCGATTGACAGCGTAGAATGAAGG
DNA 2: CCTTCATTCTACGCTGTCAATCGCATTCGCACTGAATGCCCCCCCGTAACCTACTCGGGC
B22: NRC3_wobSeed51_DR2_C4G_o1 (dsDNA)
DNA 1: GCCGTCGGAGGACAGAAGGTCAGAGCTGTCCGCTTTGCGATTGACAGCGTAGAATGAAGG
DNA 2: CCTTCATTCTACGCTGTCAATCGCAAAGCGGACAGCTCTGACCTTCTGTCCTCCGACGGC
B23: NRC3_wobSeed51_DR2_G25T_o1 (dsDNA)
DNA 1: GCCCTCGGAGGACAGAAGGTCAGATCTGTCCGCTTTGCGATTGACAGCGTAGAATGAAGG
DNA 2: CCTTCATTCTACGCTGTCAATCGCAAAGCGGACAGATCTGACCTTCTGTCCTCCGAGGGC
B24: NRC3_wobSeed75_DR3_C6A_o1 (dsDNA)
DNA 1: GCTCTAGGAGGACACGAAGGTCAGAGCTTTCCAGAGGCGATTGACAGCGTAGAATGAAGG
DNA 2: CCTTCATTCTACGCTGTCAATCGCCTCTGGAAAGCTCTGACCTTCGTGTCCTCCTAGAGC
B25: NRC3_wobSeed112_DR4_C22G_o1 (dsDNA)
DNA 1: GCTAGCCTAGGTCAGATCGGGGCAGTATACGCTATAGCGATTGACAGCGTAGAATGAAGG
DNA 2: CCTTCATTCTACGCTGTCAATCGCTATAGCGTATACTGCCCCGATCTGACCTAGGCTAGC
B26: NRC3_wobSeed112_DR4_C23G_o1 (dsDNA)
DNA 1: GCTAGCCTAGGTCAGATCGGGCGAGTATACGCTATAGCGATTGACAGCGTAGAATGAAGG
DNA 2: CCTTCATTCTACGCTGTCAATCGCTATAGCGTATACTCGCCCGATCTGACCTAGGCTAGC
B27: NRC3_wobSeed112_DR4_A27C_o1 (dsDNA)
DNA 1: GCTAGCCTAGGTCAGATCGGGCCAGTCTACGCTATAGCGATTGACAGCGTAGAATGAAGG
DNA 2: CCTTCATTCTACGCTGTCAATCGCTATAGCGTAGACTGGCCCGATCTGACCTAGGCTAGC
B28: NRC3_wobSeed90_DR3_A8C_o1 (dsDNA)
DNA 1: GCCATACCGGGTCAGCTAGGCCAGAGTAGGGACGGCGCGATTGACAGCGTAGAATGAAGG
DNA 2: CCTTCATTCTACGCTGTCAATCGCGCCGTCCCTACTCTGGCCTAGCTGACCCGGTATGGC
B29: NRC3_wobSeed89_DR3_G18A_o1 (dsDNA)
DNA 1: GCCTATGTAGGTTAAGGAGGTCATTCAGTTTGAAAGGCGATTGACAGCGTAGAATGAAGG
DNA 2: CCTTCATTCTACGCTGTCAATCGCCTTTCAAACTGAATGACCTCCTTAACCTACATAGGC
B30: NRC3_wobSeed106_DR4_T28A_o1 (dsDNA)
DNA 1: GCCTCGAAAGGTCGGTTGAGGTGAGTAAACGGATAAGCGATTGACAGCGTAGAATGAAGG
DNA 2: CCTTCATTCTACGCTGTCAATCGCTTATCCGTTTACTCACCTCAACCGACCTTTCGAGGC
B31: NRC3_wobSeed5_DR0_G9C_o1 (dsDNA)
DNA 1: GCCCTTACCGGTCAAGGTTATAGCACGGGTGGTACGGCGATTGACAGCGTAGAATGAAGG
DNA 2: CCTTCATTCTACGCTGTCAATCGCCGTACCACCCGTGCTATAACCTTGACCGGTAAGGGC
B32: NRC3_wobSeed124_DR5_T5G_o1 (dsDNA)
DNA 1: GCCCGACTGGGCCATTCAGAGGTCATTGATCATATGGCGATTGACAGCGTAGAATGAAGG
DNA 2: CCTTCATTCTACGCTGTCAATCGCCATATGATCAATGACCTCTGAATGGCCCAGTCGGGC
B33: NRC3_wobSeed65_DR2_T8A_o1 (dsDNA)
DNA 1: GCATATGAAGGTTATCGGGTCATTCAGTTTGCGCATGCGATTGACAGCGTAGAATGAAGG
DNA 2: CCTTCATTCTACGCTGTCAATCGCATGCGCAAACTGAATGACCCGATAACCTTCATATGC

What follows are binders tested against RARb:RXRa (Homo sapiens, UniProt P10826;P19793 full;full) (assay: no ligand; PBM; 270 nM : 90 nM RXRa; PBS pH 7.4, 2% milk, 0.02% Triton X-100, 1 mM DTT, BSA, 0.4 mg/ml salmon testes DNA). Details: tags: His kept;His cleaved; copies: 1;1; label: surface-attached array probe.
Chain of RARb:RXRa (P10826 whole entry, chain 1 of 2): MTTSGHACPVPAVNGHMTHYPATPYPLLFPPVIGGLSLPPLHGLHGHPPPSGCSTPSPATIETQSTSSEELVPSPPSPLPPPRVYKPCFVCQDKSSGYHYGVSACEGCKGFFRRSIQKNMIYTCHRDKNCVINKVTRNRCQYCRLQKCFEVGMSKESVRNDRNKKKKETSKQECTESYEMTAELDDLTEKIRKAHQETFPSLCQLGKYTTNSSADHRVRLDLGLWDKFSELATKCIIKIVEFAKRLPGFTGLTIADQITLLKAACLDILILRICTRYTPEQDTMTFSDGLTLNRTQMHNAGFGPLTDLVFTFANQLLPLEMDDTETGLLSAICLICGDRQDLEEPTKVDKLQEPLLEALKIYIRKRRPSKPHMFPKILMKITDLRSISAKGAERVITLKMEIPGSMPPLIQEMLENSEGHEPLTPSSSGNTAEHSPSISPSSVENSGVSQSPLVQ
Chain of RARb:RXRa (P19793 whole entry, chain 2 of 2): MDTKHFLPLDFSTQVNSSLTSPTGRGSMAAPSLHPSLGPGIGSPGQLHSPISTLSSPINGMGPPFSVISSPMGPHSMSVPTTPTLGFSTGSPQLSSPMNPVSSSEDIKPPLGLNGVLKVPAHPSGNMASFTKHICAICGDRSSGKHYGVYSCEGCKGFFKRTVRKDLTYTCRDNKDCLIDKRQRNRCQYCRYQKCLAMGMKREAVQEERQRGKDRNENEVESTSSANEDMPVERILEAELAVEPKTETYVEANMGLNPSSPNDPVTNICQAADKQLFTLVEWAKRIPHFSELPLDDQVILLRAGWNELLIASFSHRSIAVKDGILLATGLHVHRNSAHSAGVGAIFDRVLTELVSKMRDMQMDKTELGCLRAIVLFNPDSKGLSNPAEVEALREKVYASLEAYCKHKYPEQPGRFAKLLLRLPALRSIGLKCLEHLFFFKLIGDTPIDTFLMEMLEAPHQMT
How it was run: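 Antibodies against each partner of ligand-free nuclear receptor dimers (one per run) detected binding on custom Agilent 4×180K protein-binding microarrays after 1 h incubation. The double-stranded probes had 34-nt variable regions carrying direct-repeat seeds, single-nucleotide variants, half-site ablations and random human genomic background sequences. Binding z-scores, from regression-normalized fluorescence, use the random background probes as reference.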
For B1, the binding signal was 3.11 PBM z-score against 500 random probes.
B2 was tested, and the binding signal was 3.1 PBM z-score against 500 random probes.
In the case of B3, the binding signal is reported as 3.12 PBM z-score against 500 random probes.
With B4 the binding signal was 3.09 PBM z-score against 500 random probes.
With B5 the binding signal was 3.13 PBM z-score against 500 random probes.
For B6, the binding signal was 3.11 PBM z-score against 500 random probes.
B7 was tested, and the binding signal was 3.07 PBM z-score against 500 random probes.
In the case of B8, the binding signal is reported as 3.04 PBM z-score against 500 random probes.
With B9 the binding signal was 3.09 PBM z-score against 500 random probes.
B10 was tested, and the binding signal was 3.06 PBM z-score against 500 random probes.
In the case of B11, the binding signal is reported as 3.06 PBM z-score against 500 random probes.
With B12 the binding signal was 3.05 PBM z-score against 500 random probes.
For B13, the binding signal was 3.06 PBM z-score against 500 random probes.
With B14 the binding signal was 3.05 PBM z-score against 500 random probes.
With B15 the binding signal was 3.06 PBM z-score against 500 random probes.
In the case of B16, the binding signal is reported as 3.05 PBM z-score against 500 random probes.
For B17, the binding signal was 3.08 PBM z-score against 500 random probes.
B18 was tested, and the binding signal was 3.03 PBM z-score against 500 random probes.
With B19 the binding signal was 3.07 PBM z-score against 500 random probes.
In the case of B20, the binding signal is reported as 3.03 PBM z-score against 500 random probes.
With B21 the binding signal was 3.09 PBM z-score against 500 random probes.
In the case of B22, the binding signal is reported as 3.1 PBM z-score against 500 random probes.
For B23, the binding signal was 3.07 PBM z-score against 500 random probes.
With B24 the binding signal was 3.07 PBM z-score against 500 random probes.
In the case of B25, the binding signal is reported as 3.1 PBM z-score against 500 random probes.
For B26, the binding signal was 3.08 PBM z-score against 500 random probes.
For B27, the binding signal was 3.08 PBM z-score against 500 random probes.
With B28 the binding signal was 3.04 PBM z-score against 500 random probes.
For B29, the binding signal was 3.12 PBM z-score against 500 random probes.
B30 was tested, and the binding signal was 3.1 PBM z-score against 500 random probes.
With B31 the binding signal was 3.08 PBM z-score against 500 random probes.
For B32, the binding signal was 3.03 PBM z-score against 500 random probes.
B33 was tested, and the binding signal was 3.08 PBM z-score against 500 random probes.
